# T1: Myc-tagged Chk1 C-terminal fragment C5, O14757
# T1 chain: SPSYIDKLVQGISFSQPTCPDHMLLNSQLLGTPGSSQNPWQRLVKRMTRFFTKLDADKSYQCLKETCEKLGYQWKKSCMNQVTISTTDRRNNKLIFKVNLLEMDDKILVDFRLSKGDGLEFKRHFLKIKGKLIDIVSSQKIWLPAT
# Target: T1, Myc-tagged Chk1 C-terminal fragment C5, …
protein,measurement,value
endogenous Chk1 (protein) MAVPFVEDWDLVQTLGEGAYGEVQLAVNRVTEEAVAVKIVDMKRAVDCPENIKKEICINKMLNHENVVKFYGHRREGNIQYLFLEYCSGGELFDRIEPDIGMPEPDAQRFFHQLMAGVVYLHGIGITHRDIKPENLLLDERDNLKISDFGLATVFRYNNRERLLNKMCGTLPYVAPELLKRREFHAEPVDVWSCGIVLTAMLAGELPWDQPSDSCQEYSDWKEKKTYLNPWKKIDSAPLALLHKILVENPSARITIPDIKKDRWYNKPLKKGAKRPRVTSGGVSESPSGFSKHIQSNLDFSPVNSASSEENVKYSSSQPEPRTGLSLWDTSPSYIDKLVQGISFSQPTCPDHMLLNSQLLGTPGSSQNPWQRLVKRMTRFFTKLDADKSYQCLKETCEKLGYQWKKSCMNQVTISTTDRRNNKLIFKVNLLEMDDKILVDFRLSKGDGLEFKRHFLKIKGKLIDIVSSQKVWLPAT,"phosphorylation of endogenous Chk1 proteins (immunoblot, HeLa)","overexpression of the C5 fragment and to a lesser extent, the entire C-terminus, induced strong phosphorylation of endogenous Chk1 proteins"
same,"phosphorylation of endogenous Chk1 under normal growth conditions (immunoblot, HEK293T)","expression of the C5 fragment, and to a lesser extent, the C6 fragment, but not other small fragments, induced phosphorylation of endogenous Chk1 under normal growth conditions"

# Reference: patent US20140030245
